Test results taken from patent US20120309692A1.

Target: recombinant human glandular kallikrein 2 (hK2) (human) (UniProt P20151)
Experiment: cell-based or functional assay

Chain of SLPI (P03973 26-132 limits assumed): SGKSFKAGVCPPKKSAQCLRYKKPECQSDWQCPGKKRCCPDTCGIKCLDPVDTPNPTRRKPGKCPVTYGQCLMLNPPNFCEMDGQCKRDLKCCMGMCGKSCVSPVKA

Q: Which hK2 Activity (%) of inhibitor-free control, inhibitor at 0.08 µM does the source give for SLPI (from UniProt P03973 26-132) here?
A: The hK2 Activity (%) of inhibitor-free control, inhibitor at 0.08 µM was 92%.

Q: And the hK2 Activity (%) of inhibitor-free control, inhibitor at 4 µM?
A: Its hK2 Activity (%) of inhibitor-free control, inhibitor at 4 µM is 35%.

Q: leupeptin (peptide) was tested. Which hK2 Activity (%) of inhibitor-free control, inhibitor at 100 µM did it give?
A: The hK2 Activity (%) of inhibitor-free control, inhibitor at 100 µM was 12%.

Q: With antipain (peptide) as the substance, how does the hK2 Activity (%) of inhibitor-free control, inhibitor at 100 µM read?
A: The hK2 Activity (%) of inhibitor-free control, inhibitor at 100 µM was 33%.

Q: What about the hK2 Activity (%) of inhibitor-free control, inhibitor at 500 µM of the same substance?
A: The hK2 Activity (%) of inhibitor-free control, inhibitor at 500 µM was 10%.

Q: With PPACK (peptide) as the substance, how does the hK2 Activity (%) of inhibitor-free control, inhibitor at 5 µM read?
A: Its hK2 Activity (%) of inhibitor-free control, inhibitor at 5 µM is 0%.
